This data set concerns the target T1, GST-AhAREB1 (Arachis hypogaea, UniProt G4X5C6 1-445).
T1 sequence: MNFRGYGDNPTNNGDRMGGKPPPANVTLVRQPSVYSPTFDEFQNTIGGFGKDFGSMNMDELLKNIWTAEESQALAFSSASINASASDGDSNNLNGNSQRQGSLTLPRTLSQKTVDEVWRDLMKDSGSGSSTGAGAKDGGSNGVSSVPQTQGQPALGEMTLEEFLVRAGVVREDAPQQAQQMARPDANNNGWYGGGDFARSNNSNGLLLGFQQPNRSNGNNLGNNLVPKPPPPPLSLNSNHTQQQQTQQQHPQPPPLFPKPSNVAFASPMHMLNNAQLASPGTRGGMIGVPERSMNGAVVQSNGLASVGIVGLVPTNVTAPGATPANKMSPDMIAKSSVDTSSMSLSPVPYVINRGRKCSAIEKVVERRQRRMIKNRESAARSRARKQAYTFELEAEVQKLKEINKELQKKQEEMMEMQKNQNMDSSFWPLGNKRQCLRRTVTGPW
The data set can be described thus: EMSA; LightShift Chemiluminescent EMSA kit (Pierce); buffer, salt, pH and temperature not stated. Particulars: protein: recombinant; tags: N-terminal GST (pGEX-4T-1); chain copies: 2; label: biotin. (A gel shift assay detects complexes by their altered migration in electrophoresis.)

B1: WT probe, AhNCED1 promoter ABRE/NACRE (-1367) (dsDNA)
DNA 1: CTCATCAATTATCACGTGTGATTGCTCTCA
DNA 2: TGAGAGCAATCACACGTGATAATTGATGAG
For B1, the binding result is “binds”.
